Results on four molecules are retold here after patent US20160346411A1.

Data set [1] has as its target clotted fibrin (human). As to the kind of experiment: T1-weighted MR at 1.5T: percent change of signal-intensity ratio, phantom 3 (pelleted fibrin) against phantom 1 (fibrinogen), 10 µM probe, region of the pellet.
Data set [2] concerns the target clotted fibrin (human). As to the kind of experiment: T1-weighted MR at 1.5T: percent change of signal-intensity ratio, phantom 3 (pelleted fibrin) against phantom 1 (fibrinogen), 10 µM probe, liquid above the pellet.
The target in data set [3] is clotted fibrin (human). As to the kind of experiment: T1-weighted MR at 1.5T: percent change of signal-intensity ratio, phantom 2 (clotted fibrin) against phantom 1 (fibrinogen), 10 µM probe.
clotted fibrin (human), sequence (P50402 whole entry, the tested form may be a part): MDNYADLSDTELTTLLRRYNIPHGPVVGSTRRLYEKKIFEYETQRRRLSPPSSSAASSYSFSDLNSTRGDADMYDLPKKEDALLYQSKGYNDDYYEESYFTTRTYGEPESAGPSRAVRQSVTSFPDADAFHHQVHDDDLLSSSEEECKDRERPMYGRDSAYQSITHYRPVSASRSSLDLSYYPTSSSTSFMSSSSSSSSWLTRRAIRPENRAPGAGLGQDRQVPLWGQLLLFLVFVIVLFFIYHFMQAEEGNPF
In data set [4] the target is clotted fibrin (human). Nature of the data set: T1-weighted MR at 1.5T: percent change of signal-intensity ratio, phantom 3 (pelleted fibrin) against phantom 1 (fibrinogen), 10 µM probe, region of the pellet; 1 pre-treated with PDI and DTT is converted to EP-2104R.
Data set [5] has as its target DD(E), soluble protein fragment of fibrin (human) (UniProt P02671). Nature of the data set: competitive displacement of TRITC-Tn6 (0.1 µM) from DD(E) (2 µM), fluorescence anisotropy, least-squares regression.
Data set [6] shares this target. Nature of the data set: competitive displacement of TRITC-Tn6 (0.1 µM) from DD(E) (2 µM), fluorescence anisotropy.
Data set [7] has as its target clotted fibrin (human). As to the kind of experiment: T1-weighted MR at 1.5T: percent change of signal-intensity ratio, phantom 2 (clotted fibrin) against phantom 1 (fibrinogen), 10 µM probe; 1 pre-treated with PDI and DTT is converted to EP-2104R.
Data set [8] addresses clotted fibrin (human). Nature of the data set: T1-weighted MR at 1.5T: percent change of signal-intensity ratio, phantom 3 (pelleted fibrin) against phantom 1 (fibrinogen), 10 µM probe, liquid above the pellet; 1 pre-treated with PDI and DTT is converted to EP-2104R.
For data set [9], the system named is T1, TRITC-Tn6-MDS.
T1 sequence: QWECPYGLCWIQ

Data set [10] deals with Compound 1.
Data set [11] deals with DD(E), soluble protein fragment of fibrin (human) (UniProt P02671). As to the kind of experiment: direct titration of the TRITC probe (0.1 µM) with DD(E) up to about 32 µM, fluorescence anisotropy plotted as % probe bound.
Data set [12] shares this target. Nature of the data set: fluorescence anisotropy, serial dilution of DD(E) mixed with the probe; reference is cyclic TRITC-Tn6.

Several values for one entry are separate records, joined by “and”; a condition that tells them apart may be missing. Identical values can stand only once. Numbered stars: 1 amine (or outer) side, 2 acyl side, 3 side chain; on linkers, the order of the positions; unused ones are H or OH. Bridge positions count the residues as written; N and C are the ends. TRITC = tetramethylrhodamine dye; Cysteamine = C(CS[*:2])N[*:1]; Ahx = NCCCCCC(=O)O

Turning to EP-2104R (peptide), the %Δ SIR, lower region was 49% and 69% in data set [1]; 36% in data set [4]. In addition, the %Δ SIR, upper region in data set [2] is -24% and -21%; in data set [8] it was -22%. For the same molecule, the %Δ SIR in data set [3] is 8% and 11%; in [7], 12%. In [5], this molecule had a Kd of 160 nM. Moreover, the IC50 (read off the curve) in [6] stood at 2 µM.

protein disulfide isomerase: in data set [9], the “conversion of the mixed-disulfide form to the cyclized form, followed by LC-MS” value is “PDI alone does not promote cyclization of the probe, but PDI in the presence of a reducing agent like dithiothreitol (DTT) promotes rapid conversion of the probe to the desired product compared to DTT alone”; the “real-time change in fluorescence anisotropy in the presence of 2 µM DD(E)” value was “it is evident that only when both PDI and DTT are present simultaneously that the probe is efficiently activated”. Also, in data set [10], the “conversion of Compound 1 to EP-2104R, followed by 1/T1 in the presence of 12.0 µM DD(E)” value is “The rate of conversion of 1 to EP-2104R was most rapid for the reaction performed under condition D in which both PDI and DTT were present simultaneously”; the “conversion of Compound 1 to EP-2104R, seen as fall of the anisotropy of TRITC-Tn6 on DD(E)” value is reported as “with 1 mg/L PDI plus 10 µM DTT the anisotropy falls from about 0.25 to about 0.183 in about 1170 s, with DTT alone only to about 0.233; with PDI alone it stays at about 0.25 like untreated”; the “conversion of Compound 1 to EP-2104R, seen as rise of 1/T1 with 12.0 µM DD(E)” value is “with 3 mg/L PDI plus 10.0 µM DTT 1/T1 rises from about 0.69 to about 0.825 s-1 in about 3750 s, with DTT alone from about 0.65 to about 0.715 s-1; with PDI alone it stays at about 0.64 s-1 like untreated”.

In data set [11], {TRITC-Ahx}-QWEC(Cysteamine)PYGLC(Cysteamine)WIQ-NH2 [TRITC-Tn6-MDS] came in with a Kd of 9.65 µM. Moreover, the fold Kd relative to the cyclic form in data set [12] was 20 fold.

In turn, {TRITC-Ahx}-QWECPYGLCWIQ-NH2 (disulfide 4-9) [TRITC-Tn6 peptide (cyclic form)] registered a Kd in [11] of 0.51 µM. This counts as sub-micromolar.
